A short description of this data set: label from the status in PepcDB records.
Regarding “MRNIYSIYKEHYKALISLGLPIVIGQIGVIVLGFADTLMIGHHSTIELGAASFVNNVFNLVIIFSTGFSYGLTPIVGGLYGTHQYASAGQALRNSLLANLLVAFLLTIGMTVLYFNVGNLGQPEELIPLIKPYYLVLLASLVFVMLFNGFKQFTDGITDTKTAMWILLGGNVLNIIGNYILIYGKLGLPEMGLLGAGISTLFSRIMMVVVFIIVFMRSPRFLRFKLGFYRLGWSKAIFGRLNSLGWPIAFQMGMETASFSLSAVMIGWLGTIALASHQVMLAISQFTFMMYYGMGAAVAVRVSNFNGQGDILNVRRSAYAGFHLMMALGVVLSSIVFLCRNYLGGWFTDSTEVAAMVTSLILPFLVYQFGDGLQITFANALRGISDVKLMMLIAFIAYFLISLPVGYFCGFVLEWGIIGVWMAFPFGLTSAGLMLWWRFHHKTKLPPSIQNS”, the protein production result was “not failed”. In the case of “MRNPFERMPTVLTADELIDKAFRRAEKAASSFKPRGNKVKKARLREELRVRTVSNVVRDNLRKVLERTPGLSTLPKFYQELVDVLVDRDTFHKAMAGIDWAIRIIRELEERYVERIRYSNDPNEIAELRRQFYGRVASVLRDIDDRLRYLNKAREVLKDLPVVDLEIPTVVIAGHPNVGKSTLLKALTTAKPEIASYPFTTRGINVGQFEDGYFRYQIIDTPGLLDRPISERNEIEKQAILALRYLGNLIIYIFDPSEHCGFPLEEQIHLFEEVHGEFKDLPFLVVINKIDVADEENIKRLEKFVKEKGLNPIKISALKGTGIDLVKEEIIKTLRPLAEKVAREKIERELRRYRSYL” it was “not failed”. Turning to “MRNRLPPAWAKHLKTQPSVKVAMPKATLPKAQPNASPPRSQADDMLLRQALELQQAKRLPEAEELCLRVLARTPNHPLAYYILGTLGIGYDNEKALRYFARAVAEEPQNPYYHLSLGETYLKVSEFTPAIRHIQQALDLKPDLVEALCALGDAYNEFDKGELALPLFEKALKIDRYHPLARLGLPYALASLGRMDEAAVLLKEAIDRRIALPTAYGALVQTRNFTEEPPELESILAELRDPDLGSEDASALHHAAGKVLNDLGRYKEAMVHYKKGNQAGGHKFDLENYRRWIDAMIETFTPELFASRAAYGNPSDAPVFVVGMPRSGTTLTEQICASHPNVHGAGELGKLRRVANGIGLANRSNTNFAESIATFTPDLTRALAGEHLAYLRERAPDALRIVDKMPHNFELIGLIGILFPNARIIHCRRDAIDNCISCFVLRFNEAHSYSADLQTLGLYYREYDRLMRHWNKVLPGRIFENRYEALIENQEQQSRRLIDYLGLPWDDACLRFFDREGSVNTYSRWQVRQPIYTSSIKRWRNYESEIQSLIESLGDLAET”, the protein production entry was “failed”. In the case of “MRNRTLADLDRVVALGGGHGLGRVLSSLSSLGSRLTGIVTTTDNGGSTGRIRRSEGGIAWGDMRNCLNQLITEPNVASAMFEYRFGGNGELSGHNLGNLMLKALDHLSVRPLEAINLIRNLLKVDTHLIPMSEHPVDLMAIDDQGHEVYGEVNIDQLTTPIQELLLTPNVPATREAVHAINEADLIIIGPGSFYTSLMPILLLKEIAQALRRTPAPMVYIGNLGRELSLPAANLKLESKLAIMEQYVGKKVIDAVIVGPKVDVSAVKERIVIQEVLEASDIPYRHDRQLLHNALEKALQALGLEHHHHHH” it was “failed”; in that of “MRNTNLQAMIESAILAAFALVIDILPLSIKLPTGGSISFAMIPIFIIAYRWGFKSAFLGGLVWGLLQIVVGDAYILTPVQAFIEYFIAFAFIGFAGLFYRPIQKALLTSNENNLEQSSLGSRKDKPSSKQNEGKKVLAYIILATFIGSFARYFCHFIAGIIFWGQYAPKGQSAVLYSLIVNGSTMIGSYILCTVLLIFLFLTSPRLFKSISAYQLNANKKGA”, “failed”.

Take “MRPAVIAATGLYTPPDSVSNAELVEAFNTYVANFNAANKARIEAGEIEPLQPSSSEFIEKASGIKSRYVVAKPGIVDPDVMRPIIPERSNDELSILAEMAVTAAEQAIERWGKPRERIGAVLCACSNMQRAYPAMAIEVQNALGLGGFAFDMNVACSSATFGLKTAADFVGGGSVDAVLMVNPEICSGHLNFRDRDSHFIFGDVATAAIVERADDAQGGWS”: the protein production entry was “failed”. In the case of “MRPESMTDGVPGSDSPAAAAAAASVTTSLHDLQVLVERGTLSGPEKQQADHLVTSLKRELVLRRVGDHLAERTFHELCVRLAVMERDWAAMERHIQQLMPLYELDRQAGIQSPHRDLLVGLNLMRLLAQNRLAEYHMELELLPTTEPQQNPYVLFPFQVEQALTEGSYQKILHIEAGAEWLPFIELLRETTIQEMVTSWAEAYAHVTLEELASMAALPVEQVPALLARVLDCTQYVVQNETVHFIASDHIREAPSQYLLAKEAVSRTMEYIRGLERIV” it was “not failed”; in that of “MRPHRAFSPGLTGVLPLRETRHLVEVLRARVGDRFTVFDGEREALAEVVDLGPPLRYRVLEERRPEREVGVEVVLYVALLKGDKLAEVVRAATELGATRIQPLVTRHSVPKEMGEGKLRRLRAVALEAAKQSGRVVVPEVLPPIPLKAVPQVAQGLVAHVGATARVREVLDPEKPLALAVGPEGGFAEEEVALLEARGFTPVSLGRRILRAETAALALLALCTAGEGR”, “not failed”; in that of “MRPRLGLLDASVLSFAVLPTDLDFNRHMTNARYLSLMDLGRLDLILRSGMWRLVLRQSLQPVIGGALVRFRHALRPFQPFRLTTRVLAWDARWLFIEHRVETLDGKPACTAVVRAAFVASTGMLPTADLLTRLGYGGAAPDVPAWIAPWLQADLACQPLEHHHHHH”, “failed”. Under “MRPVPPPPDRSGRCFASPRRSDLSPQAGRGEEPLAAPIEPSLPPSRPIPGRPAPPGTFAMDWTWYLFRFDGRINRALLWQALLIVALLAGLLEIVGQVIGILGGTRSTLKLAIDLDFDFGLDDLFKLVDPRASRSLASADRATSILKASGMALFFWIYLATTIKRLHDRDRSGWWIVPFFVVPGLFSQFADLLPNSNWMLPFSLAVSILWLWGLVEMFCRPGTSGHNRFGPDPLADFEDSSAASPAQGWDQSREIEIVPPNASPPGGMHVKRGA” stands “failed”; under “MRQDAEVIMKLTDADNAADGIFFPALEQNMMGAVLINENDEVMFFNPAAEKLWGYKREEVIGNNIDMLIPRDLRPAHPEYIRHNREGGKARVEGMSRELQLEKKDGSKIWTRFALSKVSAEGKVYYLALVRDASVEMAQKEQTRQLIIAVDHLDRPVIVLDPERHIVQCNRAFTEMFGYCISEASGMQPDTLLNIPEFPADNRIRLQQLLWKTARDQDEFLLLTRTGEKIWIKASISPVYDVLAHLQNLVMTFSDITEERQIRQLEGNILAAMCSSPPFHEMGEIICRNIESVLNESHVSLFALRNGMPIHWASSSHGAEIQNAQSWSATIRQRDGAPAGILQIKTSSGAETSAFIERVADISQHMAALALEQEKSRQHIEQLIQFDPMTGLPNRNNLHNYLDDLVDKAVSPVVYLIGVDHIQDVIDSLGYAWADQALLEVVNRFREKLKPDQYLCRIEGTQFVLVSLENDVSNITQIADELRNVVSKPIMIDDKPFPLTLSIGISYDLGKNRDYLLSTAHNAMDYIRKNGGNGWQFFSPAMNEMVKERLVLGAALKEAISNNQLKLVYQPQIFAETGELYGIEALARWHDPLHGHVPPSRFIPLAEEIGEIENIGRWVIAEACRQLAEWRSQNIHIPALSVNLSALHFRSNQLPNQVSDAMHAWGIDGHQLTVEITESMMMEHDTEIFKRIQILRDMGVGLSVDDFGTGFSGLSRLVSLPVTEIKIDKSFVDRCLTEKRILALLEAITSIGQSLNLTVVAEGVETKEQFEMLRKIHCRVIQGYFFSRPLPAEEIPGWMSSVLPLKI”, “failed”. Under “MRQIGNRRVAPLAILAAVLMGGPTNASTGEFKVAYLYNLSDFTGTIPYSLAKIALDATARETYVISGETVKVFNNSGMEVYRFTNTMESGIVYDAAIDEQGRILVLAYNNGTPSLLLCNYRAEPIKPIEFKGLPEKLAAFKPNRLMLRDGKICLVSLGSMMVVMLDPEGNYVKHIDLAEASSVTEEDRLNTGIGAVAFDSDGSVLFTSPVTGKVFRISANGTVESFGKRGSAPGKFGVPTGIAVDGLGNYYISDKLRCAILVFDRQFKFIYEFGGRGDAPGSLVGPDDLAIDAEGKLYVGQLGNRGVSVFKVTHD” stands “failed”; under “MRQSTLHTRLSTGPGGSMRSSIEIFNIRTRKMRVVWQTPELFEAPNWSPDGKYLLLNSEGLLYRLSLAGDPSPEKVDTGFATICNNDHGISPDGALYAISDKVEFGKSAIYLLPSTGGTPRLMTKNLPSYWHGWSPDGKSFTYCGIRDQVFDIYSMDIDSGVETRLTHGEGRNDGPDYSPDGRWIYFNSSRTGQMQIWRVRVDGSSVERITDSAYGDWFPHPSPSGDKVVFVSYDADVFDHPRDLDVRVQLMDMDGGNVETLFDLFGGQGTMNSPNWSPDGDEFAYVRYFPVE”, “not failed”; under “MRQTFIARKISFISLIHFRDEYMSPQNNHLQRPPAAVLYADELAKLKQNDNAPCPPGWQLSLPAARAFILGDEAQNISRKVVISPSAVERMLVTLATGRGLMLVGEPGTAKSLLSELLATAISGDAGLTIQGGASTTEDQIKYGWNYALLINHGPSTEALVPAPLYQGMRDGKIVRFEEITRTPLEVQDCLLGMLSDRVMTGPELTGEASQLYAREGFNIIATANTRDRGVNEMSAALKRRFDFETVFPIMDFAQELELVASASARLLAHSGIPHKVPDAVLELLVRTFRDLRANGEKKTSMDTLTAIMSTAEAVNVAHAVGVRAWFLANRAGEPADLVECIAGTIVKDNEEDRARLRRYFEQRVATHKEAHWQAYYQARHRLP”, “failed”. For the sequence “MRRENTKSNIDFKSIFDSLPDLYLLLDRDFNIVGVSDAYLQATMVSRKQILGKNVFDAFPDNPNDPKATGAKNLYASLLRVLKNKSADTMAIQKYDIQRPADRGGGFEERYWSPINTPVLGADQEVEYIIHRVEDVT”, the protein production entry is listed as “failed”. As to “MRRGRGKGKKQNASAREDRGSGDEEKIPAYRRRGRPQKPMKDDFEEEEEEDDEEMVEKMEVEDEDEEIDDGSVTSKDLKERKRKMSNGSNTDLTEEENGLGSKPNTDDSTRSTSIGFRQNGSRRKSKPRRAAEAVVECNGV”, the protein production entry was “failed”. Under “MRRHRLSGQITLSMSVVVAIAVLMVFVGTFIFYSIYMTWFPPPPGPPPLLPEAPDFILIAIFLLLGLAIAIHAALRLTRRILAPLNSLAEGARKIAAGDLTARAVAGDRSLGETAQLVDDFNAMARRLEDAAESMTSWNAAIAHELRTPLTILRGRLQGLTDGVFEPSDELFRSLLVQVENLSRLVDDLRVVTLSDSQRLDMRVEPTDLANEVAQAVDAMRPALEGAGFSIRMTTEPVTLPCDGPRIRQALLALLENARRYATPGMIVIRMTLETFEVAIAVEDEGPGLSAEFAARAFDAFVRAEPSRSRQFGGSGLGLSVVRAIAEAHGGHARYSTSEKGGSVFEIVFPIDGASADSNAASCAPKV” stands “failed”. In the case of “MRRKERRESMKKHRQLLALFICLVMSVSLLTGYSETKAATEEPTQSAEQDATQETAETREITDMAGRKVTVPTAENIESVFSAGPVAAIFLYMVVPDKLLGWNYELNDVEKSIILDKYQDLPNFGMGDAVNYEAVIAANPTIAINSGKINDAMVSDCDALSESLGIPVVAVDNELNNSAEAFRFMGELLGVEDHAEELAQYAEQVFTDINVLSDIPEEKKVSVYFGNGEDSLETAPRGSQHAQILDAINAVNVADLELGDGSRVQISAEQLLAWDPDVIVVNGEPKADKSGSSAAEDILSNPDYASLKAVQDQKVYGTPNAPFSWVDRPAGPNRLIGMRWFSALIYPEYIKCDINEEIHKFFDLFYHVDLSDEQLENVLKGTL” it was “failed”.

Values taken from a protein production outcome set (Wang et al. 2014).
